# Experimental data taken from US20140274906A1 (NONO, published 2014).
# No end group written: not given here.
# T1: ND2 310-321 peptide (human)
# T1 peptide: NVKMKWQFEHTK
# B1: biotinylated Src40-49 peptide (peptide)
# peptide: KPASADGHRG
# modifications: also: biotinylated, position not given here
# notes: Labelled probe; also called bio-Src 40-49; Bio-Src40-49
# B2: Src40-49 peptide (peptide)
# peptide: KPASADGHRG
# B3: Tat-ND2 310-321 (peptide)
# peptide: YGRKKRRQRRRNVKMKWQFEHTK
# B4: GST-ND2.1.4 (AA 289-321) (other)
# chain: NLYFYLRLIYSTSITLLPMSNNVKMKWQFEHTK
# modifications: also: GST fusion, linker and position in fusion not given here
# notes: also called ND2 2.1.4; not shown: glutathione S-transferase (GST) fusion partner
# B5: Src40-49-Tat (peptide)
# peptide: KPASADGHRGYGRKKRRQRRR
# B6: Src 40-58 peptide (plated, unlabelled) (peptide)
# peptide: KPASADGHRGPSAAFVPAA
# B7: biotinylated scrambled Src 40-58 control peptide (peptide)
# peptide: AGSHAPFPSPARAGVAPDA
# modifications: also: biotinylated, position not given here
# notes: Scrambled negative control; also called sSrc 40-58; B-sSRC 40-58
# B8: biotinylated ND2 310-321 (peptide)
# peptide: NVKMKWQFEHTK
# modifications: also: biotinylated, position not given here
# B9: Tat-Src40-49 (peptide)
# peptide: YGRKKRRQRRRKPASADGHRG
# B10: biotinylated Src 40-58 peptide (peptide)
# peptide: KPASADGHRGPSAAFVPAA
# modifications: also: biotinylated, position not given here
# notes: Probe in dot blots (~15 ug/ml) and ELISA (6 uM); also called biotin-Src 40-58; Biotin-Src 40-58
# How the values were obtained:
# [1] = molecular target: B3; test: ELISA, plate coated with Tat-ND2 310-321 (FIG. 5C)
# [2] = molecular target: B8; test: dot blot, Src fragments spotted, probed with Bio-ND2 310-321 (FIG. 5A)
# [3] = molecular target: B10; test: ELISA (FIG. 6)
# [4] = molecular target: B1; test: competition ELISA, competitor against coated ND2 310-321 peptide (FIG. 7)
# [5] = molecular target: B10; test: ELISA (FIG. 2C)
# [6] = molecular target: B7; test: dot blot of GST-ND2 constructs (FIG. 2B)
# Procedure: (§1) In general, 1-10 ug of peptide or recombinant protein was spotted onto nitrocellulose and dried overnight. Membranes were blocked with 5% milk for 1 h at room temperature, then incubated with biotinylated peptides (˜15 ug/ml) for 2 hours the washed using standard wash buffers. Bound probe was detected using a short incubation with streptavidin conjugated to horseradish peroxidase (SA-HRP) and standard detection reagents, predominantly chemiluminescence kits.
# [7] = molecular target: B3; test: competition ELISA, competitor against biotinylated Src40-49, Tat-ND2 310-321 pre-coated (FIG. 5E)
# [8] = molecular target: B8; test: ELISA, Src peptides plated at ~5 uM (FIG. 5B)
# [9] = molecular target: T2, GST-ND2 (full length ND2) (human, UniProt P03891 1-347); test: dot blot of GST-ND2 constructs (FIG. 2B)
# T2 construct: GST fusion protein, expressed and purified; printed as full length ND2; not shown: glutathione S-transferase (GST) fusion partner
# [10] = molecular target: T3, GST-ND2.1 (AA239-321) (human, UniProt P03891 239-321); test: dot blot of GST-ND2 constructs (FIG. 2B)
# T3 construct: not shown: glutathione S-transferase (GST) fusion partner
# [11] = molecular target: B6; test: ELISA (FIG. 5B)
# [12] = molecular target: B2; test: dot blot (FIG. 5A)
# [13] = molecular target: B5; test: dot blot (FIG. 5A)
# [14] = molecular target: B9; test: dot blot (FIG. 5A)
# [15] = molecular target: T1, ND2 310-321 peptide; test: competition ELISA, competitor against biotinylated Src40-49 (FIG. 5D)
# [16] = molecular target: B3; test: ELISA (FIG. 6)
# [17] = molecular target: T1, ND2 310-321 peptide; test: ELISA (FIG. 6); ND2 310-321 is the weaker comparator
# [18] = molecular target: T3, GST-ND2.1 (AA239-321); test: ELISA, GST-ND2.1 coated, biotin-Src 40-58 at 6 uM, SA-HRP (FIG. 2C)
# [19] = molecular target: B4; test: ELISA, GST-ND2.1.4 coated, biotin-Src 40-58 at 6 uM, SA-HRP (FIG. 2C)
# [20] = molecular target: T2, GST-ND2 (full length ND2); test: dot blot, GST proteins spotted, probed with biotinylated Src 40-58 (FIG. 1C)
# Procedure: as §1
# T2 sequence (P03891 whole entry, the tested form may be a part): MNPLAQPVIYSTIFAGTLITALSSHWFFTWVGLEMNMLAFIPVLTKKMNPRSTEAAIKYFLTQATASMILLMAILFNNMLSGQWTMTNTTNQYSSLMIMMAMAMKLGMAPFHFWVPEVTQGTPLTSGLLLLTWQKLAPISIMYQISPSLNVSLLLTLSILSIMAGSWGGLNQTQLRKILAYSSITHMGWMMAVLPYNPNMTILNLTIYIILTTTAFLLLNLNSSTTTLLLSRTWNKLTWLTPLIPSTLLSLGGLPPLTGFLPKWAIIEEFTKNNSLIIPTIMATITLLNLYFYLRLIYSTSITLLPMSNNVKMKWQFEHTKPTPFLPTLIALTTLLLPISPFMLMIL
binder,measurement,setting,value
B1,binding result,[1],binds
B2,binding result,[2],binds
B3,binding result,[3],binds
same,binding result,[4],binds
B4,binding result,[5],binds
same,binding result,[6],no binding (tested: ~15 ug/ml biotinylated peptide)
B5,binding result,[2],binds
same,binding result,[7],binds
B6,binding result,[8],binds
B7,binding result,[9],no binding (tested: ~15 ug/ml biotinylated peptide)
same,binding result,[10],no binding (tested: ~15 ug/ml biotinylated peptide)
"GAAKRPSDGH (also: biotinylated, position not given here, also called Bio-sSrc 40-49; sSrc40-49) [biotinylated scrambled Src 40-49 control peptide]",binding result,[1],no binding
B8,binding result,[11],binds
same,binding result,[12],binds
same,binding result,[13],binds
same,binding result,[14],binds
B9,binding result,[15],binds
same,binding result,[2],binds
B10,binding result,[16],binds
same,binding result,[17],binds
same,binding result,[18],binds
same,binding result,[19],binds
same,binding result,[20],binds
